Values of other authors, collected in paper PMC2948943.

Target: UmuD (Escherichia coli) (UniProt P0AG11)

Chain of UmuD (P0AG11 25-139): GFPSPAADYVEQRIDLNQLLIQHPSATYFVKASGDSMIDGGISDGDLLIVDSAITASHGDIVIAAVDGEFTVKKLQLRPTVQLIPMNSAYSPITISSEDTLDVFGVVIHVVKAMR

Kd: < 0.01 nM
Substance: UmuD (from UniProt P0AG11)
